Laboratory results taken from the supplement of paper PMC9170038.

Tested on: MS2 coat protein
Assay: apparent KD of MS2 coat protein; designed switch direction (-1 OFF switch, 1 ON switch): -1; higher = weaker reporter binding
Summary of the method: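 Designed RNA switches sharing common flanks were transcribed on Illumina chips by stalled E. coli RNA polymerase. They were titrated with SNAP-549-labelled MS2 coat protein, from 0.7 or 1.5 nM doubling to 3 µM, in Tris-HCl pH 7.5 buffer with KCl, MgCl2, BSA, DTT, tRNA and Tween-20. Titrations ran without input, with 200 uM small-molecule ligand, or with an oligonucleotide input. The apparent KD of each design is the median over its clusters, after curve-fitting of normalised cluster fluorescence.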

[1] = input ligand: microRNA oligo, concentration not stated
[2] = Eterna round: R95, input ligand: FMN 200 uM
[3] = Eterna round: R95, input ligand: microRNA oligo, concentration not stated
[4] = Eterna round: R95, input ligand: none

Row | Sequence | apparent KD of MS2 coat protein [1] [nM] | apparent KD of MS2 coat protein (input ligand: FMN 200 uM) [nM] | apparent KD of MS2 coat protein (input ligand: none) [nM] | apparent KD of MS2 coat protein [2] [nM] | apparent KD of MS2 coat protein [3] [nM] | apparent KD of MS2 coat protein [4] [nM]
1 | ACAUGAGGAUCACCCAUGUUAUGUUGGGUACUAAAUUAUUCGUAGGAUAUCGUAGCUAGUUUGUGCGAGAAGGACGCAGUUUUU [JR_ExcNG3_Sub060] (Eterna round: R96, puzzle: Exclusion NG 3) | 202 | – | – | – | – | –
2 | ACAUGAGGAUCACCCAUGUUAUGUUGGGUACUAAAUUAUUCGUAGGAUAUCGUAGCUAGUUUGUGCGAGAAGGACGCAUUUUUU [JR_ExcNG3_Sub059] (Eterna round: R96, puzzle: Exclusion NG 3) | 229 | 205 | 273 | – | – | –
3 | ACAUGAGGAUCACCCAUGUUCGGCUGGUCCGUCUCGGCUGUCGAGGAUAUAGUUCGGUGUCCGCGCUAGAAGGCGGGAGCUGGC [Aenatbe mod 65] (Eterna round: R96, puzzle: Exclusion NG 3) | 29.4 | 34.1 | 42.6 | – | – | –
4 | ACAUGAGGAUCACCCAUGUUUAUUGGGUACUAUACUAUCAGCAAGGAUAUGCAAAUUUUUUUUACGCAGAAGGUGCAGGAACCU [JR_ExcNG3_Sub070] (Eterna round: R96, puzzle: Exclusion NG 3) | 355 | – | – | – | – | –
5 | ACAUGAGGAUCACCCAUGUUUGGCUGGUUUUCUCCGGCUGUCGAGGAUAUAGUACGGUAUCCGCGCUAGAAGGUGAGGGCCGGC [Aenatbe mod 1] (Eterna round: R96, puzzle: Exclusion NG 3) | 14.3 | 15.5 | 15.8 | – | – | –
6 | ACAUGAGGAUCACCCAUGUUUUUUGGGUACUCUUGAUACAGCAAGGAUAUGCAUUAUUUAUGUACGCAGAAGGUGCAUUACGUC [JR_ExcNG3_Sub063] (Eterna round: R96, puzzle: Exclusion NG 3) | 837 | – | – | – | – | –
7 | ACAUGAGGAUCACCCAUGUUUUUUGGGUACUCUUGUUUCUGCAAGGAUAUGCAUUAUUUAUGUACGCAGAAGGUGCAUUACGUC [JR_ExcNG3_Sub062] (Eterna round: R96, puzzle: Exclusion NG 3) | 692 | 696 | 962 | – | – | –
8 | ACAUGUAUUGCAGGAUAUGGGACACAUGAGGAUCACCCAUGUGACUACAUGUCAUACCACGGGUCUCAGAAGGGUAUGUACAUG [Ex NG2 #40] (Eterna round: R96, puzzle: Exclusion NG 2) | 15.1 | 28.9 | 23 | – | – | –
9 | ACAUGUCAUCGAGGAUAUUGGACACAUGAGGAUCACCCAUGUACUCGGAUGCUCUAGCAUGAGUUCGAGAAGGCGAUGUACAUU [Ex NG2 #79] (Eterna round: R96, puzzle: Exclusion NG 2) | 234 | 1350 | 593 | – | – | –
10 | ACAUGUCAUUGAGGAUAUUGCAAACAUGAGGAUCACCCAUGUAAACGGAUGCUCUUACGUGGGUUCGAGAAGGCGAUGUACAUU [Ex NG2 #93] (Eterna round: R96, puzzle: Exclusion NG 2) | 39.8 | 930 | 242 | – | – | –
11 | ACAUGUUAUCCAUGAUAUCACAUGAGGAUCACCCAUGUUAUGGCGAUUUUGAGGUGUAAGUUUUGUGCUCGUCUUAU [JR_STOV1_Sub057] (Eterna round: R97, puzzle: Sensor, turn-off variant 1) | – | 80.1 | 89.4 | – | – | –
12 | ACAUGUUAUCCAUGAUAUCACAUGAGGAUCACCCAUGUUAUGGCGAUUUUGAGGUGUAAGUUUUUUGCUCGUCUUAU [JR_STOV1_Sub058] (Eterna round: R97, puzzle: Sensor, turn-off variant 1) | – | 51.5 | 61.1 | – | – | –
13 | ACAUGUUAUCCAUGAUAUUACAUGAGGAUCACCCAUGUUAUGGCGAUUUUGAUGUGUAAGUUUGUUGCUCGUCUUAU [JR_STOV1_Sub060] (Eterna round: R97, puzzle: Sensor, turn-off variant 1) | – | 40.9 | 48.1 | – | – | –
14 | ACAUGUUGUCCAUGAUAUUACAUGAGGAUCACCCAUGUUAUUGUGAUUUUGAUGUGUAAGUUUGUUGCUCGUCUUAU [JR_STOV1_Sub063] (Eterna round: R97, puzzle: Sensor, turn-off variant 1) | – | 29.8 | 29.4 | – | – | –
15 | ACCAUAGAUGUAGGAUAUCCAUGAAGAUAACAAGGAGAAGGACAUGAGGAUCACCCAUGUAAGUAUUAUGAAUGUAGCGACAGC [Meechl Ex NG1] (Eterna round: R96, puzzle: Exclusion NG 1) | 34 | 82.1 | 59.5 | – | – | –
16 | ACCAUGGUUGAAGCUAACAUGAGGAUCACCCAUGUAAGCUGCUAGGAUAUGCAGAGGCCCAGAAAGCAGAAGGAGCAGUACUGC [Diatzagequ] (Eterna round: R96, puzzle: Exclusion NG 3) | 10.6 | 14.2 | 14.9 | – | – | –
17 | ACCAUUUACUAAUCCUCUAUACAUGAGGAUCACCCAUGUUCUGAGGAUAUCAUCGUUCGCCGCGUUGAGAAGGCAGAGCAUUCG [Ariestion] (Eterna round: R96, puzzle: Exclusion NG 3) | 22.4 | 157 | 24.8 | – | – | –

Row | Sequence | apparent KD of MS2 coat protein [1] [nM] | apparent KD of MS2 coat protein (input ligand: FMN 200 uM) [nM] | apparent KD of MS2 coat protein (input ligand: none) [nM] | apparent KD of MS2 coat protein [2] [nM] | apparent KD of MS2 coat protein [3] [nM] | apparent KD of MS2 coat protein [4] [nM]
18 | ACCUCACAUGAGGAUCACCCAUGUCAGGAUAUCUAUUAUUGCAGCAUUCCUGUCGCUGAGAGAAGGGACAUUAA [EX1 #28] (Eterna round: R97, puzzle: Exclusion 1) | – | 29.4 | 23.7 | – | – | –
19 | ACGAUGACCGAAAAGUGUUAACUGACAUGAGGAUCACCCAUGUAGGAUAUGGCUACGAAAAGUAGUCAGAAGGGCAUGUCAUCA [Omei Exc(NG) 3 Av8] (Eterna round: R96, puzzle: Exclusion NG 3) | 18.7 | 27 | 27.3 | – | – | –
20 | ACGCAUUGCCUUUGGUAGUGCGUAACAUGAGGAUCACCCAUGUAGGAUAUGGUAGGCUUUGCUUACCAGAAGGACAUUAUAUUC [JL ENG3 1.03] (Eterna round: R96, puzzle: Exclusion NG 3) | 22.1 | 69.4 | 21.9 | – | – | –
21 | ACGCCGCAAGGAUAUCGUAAAGCAGACAUGAGGAUCACCCAUGUGAUAUCAUAAAGGCCACGAGAAGGUGCACAAG [Quoredin] (puzzle: Exclusion 5) | – | – | – | 35.8 | 21.2 | 24.5
22 | ACGCUAUGAGGAUAUACAUGAGGAUCACCCAUGUCCCGAUGGUGUUUCCAUUGGAGACGUAGAAGGUAUGGUUA [Eternabot (L2) Solution 13] (Eterna round: R97, puzzle: Exclusion 3) | – | 169 | 172 | – | – | –
23 | ACGUGAGCUGAGGAUAUGCCACUAGCCCGCCUGGCAGAAGGCAGUACAUGAGGAUCACCCAUGUGCGUUGGGUG [Leintice] (Eterna round: R97, puzzle: Exclusion 6) | – | 334 | 335 | – | – | –
24 | ACGUUGUCAGGAUAUCGUUAAUUUAGUUGUUUGUAUUAGUUCGAGAAGGGACAUGAGGAUCACCCAUGUUUGCA [Ex4 #31] (Eterna round: R97, puzzle: Exclusion 4) | – | 32.7 | 26.3 | – | – | –
25 | ACGUUUUUUGAGGAUAUGCGAUAUUUUUUUAUCGUAGAAGGCGAUACAUGAGGAUCACCCAUGUUUAUGGGCAU [LRO-Ex6-19] (puzzle: Exclusion 6) | – | – | – | – | 143 | –
26 | ACUAGCGAAAUGCUCGUCUUAUUUUUGUAGAGGUUCUAAACAUGAGGAUCACCCAUGUAGUGGUUUUUGUGGAGGUA [JR_SV3TOV2_Sub071] (puzzle: Sensor v3, turn-off variant 2) | – | – | – | 222 | – | 349
27 | ACUAGCUUUUUGCAUAGUAGGUUUGGUGCUUCGUAUGCAACAUGAGGAUCACCCAUGUAUUACUGAUGUCGUCGUUU [JR_SV3TOV2_Sub092] (puzzle: Sensor v3, turn-off variant 2) | – | – | – | 26.2 | 48.2 | 27.8
28 | ACUAGCUUUUUGCAUAGUAGGUUUGGUGCUUCGUAUGCUACAUGAGGAUCACCCAUGUUUUACUGAUGUCGUCGUUU [JR_SV3TOV2_Sub094] (puzzle: Sensor v3, turn-off variant 2) | – | – | – | 32.7 | 52.9 | 32.3
29 | ACUAGUCUAAAGGAUAUGGACCUGAACAAAUGGCCAGAAGGUUAAACAUGAGGAUCACCCAUGUAGGUGCGCCA [Eternabot (Original) Solution 18] (Eterna round: R97, puzzle: Exclusion 6) | – | 31.2 | 27.2 | – | – | –
30 | ACUGACAUGAGGAUCACCCAUGUAGAUGUGUUCGCAAGCCUCUAGGAUAUAUCUAACCUACCCGGAUAGAAGGAGAGGUUCCCU [Eternabot solution 9] (Eterna round: R96, puzzle: Exclusion NG 3) | 21.1 | 25.2 | 31.7 | – | – | –
31 | ACUGGUCGAGGAUAUACAAUCGUGCUUCGGCACGUAAGAUCACAUGAGGAUCACCCAUGUAGAAGGUGACCAGU [E2/1-B2] (Eterna round: R97, puzzle: Exclusion 2) | – | 135 | 28.3 | – | – | –
32 | ACUGGUCGAGGAUAUACAUGAGGAUCACCCAUGUAGAUCAACCAGCGAUAGCUGGAAUGUAGAAGGCGACCAGU [E3/5-A2] (Eterna round: R97, puzzle: Exclusion 3) | – | 191 | 24.6 | – | – | –
33 | ACUUACUGAGGAUAUACAUAGAUUUACAUGAGGAUCACCCAUGUUCCUCUAAGUAUAUAUGUAGAAGGCAGAAGAG [Mat - Exclusion 5 - JL Mod - D40] (Eterna round: R97, puzzle: Exclusion 5) | – | 172 | 145 | – | – | –
